Targets include Thrombin (UniProt P00734); Plasma kallikrein (UniProt P03952); Activated protein C (UniProt P04070); Human αFXIIa (Human) (UniProt P00748); Plasmin (UniProt P00747).
Experiment in all cases: cell-based or functional assay
Another assay deals with T1, Human βFXIIa (Human) (UniProt P00748).
T1 sequence (looked up): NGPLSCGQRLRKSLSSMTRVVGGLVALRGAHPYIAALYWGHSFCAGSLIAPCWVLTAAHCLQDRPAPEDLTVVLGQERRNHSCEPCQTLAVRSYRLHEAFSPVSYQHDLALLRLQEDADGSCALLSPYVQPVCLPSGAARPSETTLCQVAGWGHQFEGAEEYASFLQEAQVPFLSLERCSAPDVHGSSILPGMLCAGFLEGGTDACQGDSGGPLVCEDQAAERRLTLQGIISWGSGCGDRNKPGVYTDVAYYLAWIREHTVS

Data on three substances can be found in patent publication US20240132573A1.

Plasma kallikrein, sequence (P03952 20-638 limits assumed): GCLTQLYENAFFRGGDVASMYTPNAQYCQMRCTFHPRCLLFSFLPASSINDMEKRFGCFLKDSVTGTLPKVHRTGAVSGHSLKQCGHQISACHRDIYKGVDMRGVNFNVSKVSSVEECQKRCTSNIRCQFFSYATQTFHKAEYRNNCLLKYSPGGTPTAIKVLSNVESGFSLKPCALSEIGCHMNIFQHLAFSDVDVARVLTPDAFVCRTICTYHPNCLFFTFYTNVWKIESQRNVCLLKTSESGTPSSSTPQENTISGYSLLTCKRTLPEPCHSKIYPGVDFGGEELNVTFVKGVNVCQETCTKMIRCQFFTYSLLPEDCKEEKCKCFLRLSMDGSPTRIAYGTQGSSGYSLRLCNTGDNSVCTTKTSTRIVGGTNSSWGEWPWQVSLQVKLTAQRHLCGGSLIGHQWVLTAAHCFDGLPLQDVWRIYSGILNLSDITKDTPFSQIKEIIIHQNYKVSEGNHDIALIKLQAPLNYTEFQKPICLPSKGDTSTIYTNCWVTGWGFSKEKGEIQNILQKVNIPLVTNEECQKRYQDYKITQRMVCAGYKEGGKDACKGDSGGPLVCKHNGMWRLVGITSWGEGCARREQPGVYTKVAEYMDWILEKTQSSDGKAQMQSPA
Plasmin, sequence (P00747 97-810 limits assumed): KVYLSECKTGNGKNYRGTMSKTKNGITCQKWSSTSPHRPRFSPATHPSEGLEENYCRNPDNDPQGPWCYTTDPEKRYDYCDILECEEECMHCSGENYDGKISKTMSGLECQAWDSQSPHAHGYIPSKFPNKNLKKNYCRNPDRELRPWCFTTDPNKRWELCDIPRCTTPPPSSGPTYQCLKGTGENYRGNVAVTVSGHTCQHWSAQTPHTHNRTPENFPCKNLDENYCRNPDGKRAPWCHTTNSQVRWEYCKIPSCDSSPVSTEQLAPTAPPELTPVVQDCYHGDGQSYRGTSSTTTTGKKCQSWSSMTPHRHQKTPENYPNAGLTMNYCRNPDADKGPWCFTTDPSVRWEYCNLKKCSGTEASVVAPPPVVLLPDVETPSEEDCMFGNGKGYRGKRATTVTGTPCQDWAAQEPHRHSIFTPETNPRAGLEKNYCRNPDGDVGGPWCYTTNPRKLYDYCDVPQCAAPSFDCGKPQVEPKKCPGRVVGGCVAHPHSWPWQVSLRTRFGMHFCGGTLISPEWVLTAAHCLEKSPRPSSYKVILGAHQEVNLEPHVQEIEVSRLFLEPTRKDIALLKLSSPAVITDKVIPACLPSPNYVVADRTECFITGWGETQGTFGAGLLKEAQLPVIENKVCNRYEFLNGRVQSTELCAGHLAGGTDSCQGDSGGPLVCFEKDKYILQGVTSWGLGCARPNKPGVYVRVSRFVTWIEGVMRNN
α1-Antitrypsin WT, sequence (P01009 25-418): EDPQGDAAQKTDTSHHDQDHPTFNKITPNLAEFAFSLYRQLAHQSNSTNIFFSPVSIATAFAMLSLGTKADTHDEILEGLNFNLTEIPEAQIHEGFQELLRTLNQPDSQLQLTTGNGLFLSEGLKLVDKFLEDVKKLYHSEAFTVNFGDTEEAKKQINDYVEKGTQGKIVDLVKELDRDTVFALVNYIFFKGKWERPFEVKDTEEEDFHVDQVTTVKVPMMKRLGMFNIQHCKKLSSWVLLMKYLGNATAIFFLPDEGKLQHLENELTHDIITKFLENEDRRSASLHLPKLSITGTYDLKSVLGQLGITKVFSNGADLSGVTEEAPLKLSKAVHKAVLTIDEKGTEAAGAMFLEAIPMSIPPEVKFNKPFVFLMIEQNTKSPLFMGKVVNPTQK
Activated protein C, sequence (P04070 43-461): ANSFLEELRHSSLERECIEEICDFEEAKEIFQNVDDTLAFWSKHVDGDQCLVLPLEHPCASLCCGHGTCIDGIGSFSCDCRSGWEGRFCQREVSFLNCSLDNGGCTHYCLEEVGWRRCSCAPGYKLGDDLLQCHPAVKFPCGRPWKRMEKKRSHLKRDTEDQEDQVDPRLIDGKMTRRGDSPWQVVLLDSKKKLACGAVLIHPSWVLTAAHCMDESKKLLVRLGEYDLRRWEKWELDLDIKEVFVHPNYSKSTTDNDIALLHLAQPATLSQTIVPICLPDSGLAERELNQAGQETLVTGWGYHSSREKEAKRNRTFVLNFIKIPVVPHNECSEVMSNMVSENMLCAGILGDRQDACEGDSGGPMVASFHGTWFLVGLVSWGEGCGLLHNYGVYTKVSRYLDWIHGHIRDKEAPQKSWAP

For “α1-Antitrypsin variant SVTRox* (from UniProt P01009 25-418)”, the percentage inhibition, average (L2120 conversion) with Human βFXIIa (Human) amounted to 39%; in the assay with Plasma kallikrein, 99%; with Human αFXIIa (Human), 47%. In the assay with Thrombin, this substance had a percentage inhibition, average (I1140 conversion) of 7%. The same substance gave a percentage inhibition, average (S2366 conversion) with Activated protein C of 49%. The percentage inhibition, average (I1390 conversion) with Plasmin worked out at 97%.
As to “α1-Antitrypsin WT (from UniProt P01009 25-418)”, the percentage inhibition, average (L2120 conversion) with Human βFXIIa (Human), with Plasma kallikrein and with Human αFXIIa (Human) was 0% each time. This substance registered a percentage inhibition, average (I1140 conversion) with Thrombin of 0%. In the assay with Activated protein C, this substance yielded a percentage inhibition, average (S2366 conversion) of 0%. The substance further returned a percentage inhibition, average (I1390 conversion) in the assay with Plasmin of 0%.
For “α1-Antitrypsin variant 357AR358 (from UniProt P01009 25-418)”, the percentage inhibition, average (L2120 conversion) with Human βFXIIa (Human) amounted to 49%; in the assay with Plasma kallikrein it was 98%; in the assay with Human αFXIIa (Human), 62.5%. In the assay with Thrombin, this substance displayed a percentage inhibition, average (I1140 conversion) of 97.5%. The percentage inhibition, average (S2366 conversion) in the assay with Activated protein C stood at 66.5%. The substance further returned a percentage inhibition, average (I1390 conversion) with Plasmin of 99%.
